Experimental data from patent US20120201811A1 (US Dept. of Health and Human Services, published 2012).
Where two headings read alike, the source gives them in different places.

Experiments:
[1] = biological target: the molecule itself; assay: sedimentation equilibrium ultracentrifugation, gradient fitted as a monomer-dimer system (self-association of the Fab/Rev complex); self-association of the 1:1 Fab/Rev complex, monomer-dimer fit of sedimentation equilibrium
HIV-1 Rev (clone BH10) [2] = biological target: T1, HIV-1 Rev (clone BH10) (HIV-1 (isolate BH10), UniProt P04616 1-116); assay: SPR (Biacore X), Rev immobilized on CM5 chip, Fab as analyte, 1:1 Langmuir global fit
T1 construct: mature; also called full-length Rev; recombinant HIV-1 Rev
T1 sequence: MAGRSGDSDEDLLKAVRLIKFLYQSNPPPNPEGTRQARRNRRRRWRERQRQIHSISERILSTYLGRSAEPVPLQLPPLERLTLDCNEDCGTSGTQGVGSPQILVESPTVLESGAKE

HIV-1 Rev (clone BH10) [3] = biological target: T1, HIV-1 Rev (clone BH10); assay: SPR (Biacore X), Rev immobilized on CM5 chip, Fab as analyte, Kd=kd/ka
HIV-1 Rev (clone BH10) [4] = biological target: T1, HIV-1 Rev (clone BH10)
HIV-1 Rev (clone BH10) [5] = biological target: T1, HIV-1 Rev (clone BH10); assay: densitometry of Coomassie-stained SDS-PAGE of the Ni-purified complex

B1: Fab/Rev complex (1:1 complex of Fab SJS-R1 and HIV-1 Rev) (other)
light: ELVMTQTPSSVSEPVGGTVTIKCQASQSISSWLSWYQQKPGQPPKLLIYDASNLASGVPSRFMGSGSGTEYTLTISGVQREDAATYYCLGGYPAASYRTAFGGGTELEIIRTVAAPSVFIFPPSDEQLKSGTASVVCLLNNFYPREAKVQWKVDNALQSGNSQESVTEQDSKDSTYSLSSTLTLSKADYEKHKVYACEVTHQGLSSPVTKSFNRGEC
heavy: QEQLVESGGRLVTPGTALTLTCKVSGFSLSGFWLNWVRQAPGKGLEWVGAIYRGSGSEWYASWAKGRFTISDTSTTVTLKLTSPTTEDTATYFCAADTTDNGYFTIWGPGTLVTVSSASTKGPSVFPLAPSAKSTSGGTAALGCLVKDYFPEPVTVSWNSGALTSGVHTFPAVLQSSGLYSLSSVVTVPSSSLGTQTYICNVNHKPSNTKVDKKAEPKSCDKTRGHHHHHH
chain: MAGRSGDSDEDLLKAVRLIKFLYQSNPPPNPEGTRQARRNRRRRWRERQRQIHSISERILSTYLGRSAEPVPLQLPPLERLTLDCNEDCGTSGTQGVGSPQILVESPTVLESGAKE
notes: mature; also called Fab/Rev immune complex
- Kd [1]: ~100 µM

B2: Fab SJS-R1 (chimeric rabbit/human anti-Rev Fab) (Fab, V domains shown)
VH: QEQLVESGGRLVTPGTALTLTCKVSGFSLSGFWLNWVRQAPGKGLEWVGAIYRGSGSEWYASWAKGRFTISDTSTTVTLKLTSPTTEDTATYFCAADTTDNGYFTIWGPGTLVTVSS
VL: ELVMTQTPSSVSEPVGGTVTIKCQASQSISSWLSWYQQKPGQPPKLLIYDASNLASGVPSRFMGSGSGTEYTLTISGVQREDAATYYCLGGYPAASYRTAFGGGTELEIIR
notes: also called SJS-R1 Fab; Rev Fab SJS-R1
- koff (HIV-1 Rev (clone BH10) [2]): 8e-06 s⁻¹
- kon (HIV-1 Rev (clone BH10) [2]): 220000 M⁻¹ s⁻¹
- Kd (HIV-1 Rev (clone BH10) [3]): ~0.04 nM
- koff (HIV-1 Rev (clone BH10) [4]): 8.3e-06 s⁻¹
- kon (HIV-1 Rev (clone BH10) [4]): 228000 M⁻¹ s⁻¹
- molar ratio in the purified complex (HIV-1 Rev (clone BH10) [5]): 0.9 mol Rev per mol Fab

B3: scFv SJS-R1 (mature SJS-R1 scFv) (scFv)
scFv: AELVMTQTPSSVSEPVGGTVTIKCQASQSISSWLSWYQQKPGQPPKLLIYDASNLASGVPSRFMGSGSGTEYTLTISGVQREDAATYYCLGGYPAASYRTAFGGGTELEIIGGSSRSSSSGGGGSGGGGQEQLVESGGRLVTPGTALTLTCKVSGFSLSGFWLNWVRQAPGKGLEWVGAIYRGSGSEWYASWAKGRFTISDTSTTVTLKLTSPTTEDTATYFCAADTTDNGYFTIWGPGTLVTVSSHHHHHH
notes: also called anti-Rev scFv; Rev scFv
- molar ratio in the purified complex (HIV-1 Rev (clone BH10) [5]): 0.87 mol Rev per mol scFv
